{
  "source": "paper PMC9096947",
  "test_system": "CodY (Streptococcus agalactiae (Group B Streptococcus) BM110)",
  "assay": "EMSA",
  "details": "EMSA as in Barbieri et al. 2015 (buffer, salt, pH, temperature not given); 50 nM FAM probe; 5% non-denaturing Tris-glycine polyacrylamide gel; 10 mM each ILV …",
  "note": "Several values for one entry are separate records, joined by “and”; a condition that tells them apart may be missing. Equal values may be shown once.",
  "data": [
    {"substance": "livKp220 (livK regulatory region, WT)", "values": [
      {"measurement": "Kd", "result": "0.05 µM and 0.15 µM"}
    ]}
  ]
}
